T1: cynomolgus MSLN-His-Avi (cynomolgus, single biotin (BirA) in the biotinylated form)
T1 construct: Monomeric, made in HEK293-6E; also called cMSLN-His-Avi; cyno MSLN-His-Avi
T1 chain: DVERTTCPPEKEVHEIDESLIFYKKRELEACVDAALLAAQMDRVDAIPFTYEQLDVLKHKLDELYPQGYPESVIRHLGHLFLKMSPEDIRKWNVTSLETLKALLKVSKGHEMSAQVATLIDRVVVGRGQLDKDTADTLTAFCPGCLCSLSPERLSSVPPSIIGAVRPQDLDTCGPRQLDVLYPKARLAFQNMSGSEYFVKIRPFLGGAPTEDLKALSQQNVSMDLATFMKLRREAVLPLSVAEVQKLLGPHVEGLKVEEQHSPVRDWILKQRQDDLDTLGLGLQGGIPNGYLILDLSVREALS


Columns and labels:
cynomolgus MSLN-His-Avi [1] = molecular target: T1, cynomolgus MSLN-His-Avi; test: SPR steady-state analysis, cMSLN-His-Avi coated at about 50 RU
Description: The association time was 1000 sec to steady state and the dissociation time was 30 sec. Running buffer was HBS-EP (GE Healthcare BR100188). Flow cells were regenerated by injecting Glycine-HCl pH1.5 at a flow rate of 30 μl/min for 30 seconds. Data were analysed by double referencing against a flow cell which was intentionally left blank (no antigen coating). Steady state affinity model was used to analyse kinetic data using the BiaEvaluation software version 3.2.

[2] = molecular target: T2, cell surface human mesothelin (MSLN) (human, UniProt Q13421 296-598); test: flow cytometry, NCI-H226 cells
T2 construct: whole, on cells; also called cell surface MSLN
Description: (§1) Cells were centrifuged at 1200 rpm for 3 min and resuspended in ice cold FACS buffer made up of DPBS (Life Technologies, 14190169) and 1% BSA (Sigma-Aldrich, A7906) at 2×10⁶ cells/ml and 50 μl per well was seeded in a 96-well V-bottom plate (Costar, 3894). All mAbs tested were diluted in FACS buffer in 120 μl at a concentration range of 0.01-200 nM (4-fold dilutions). The NCI-H226 cells were then centrifuged, supernatant removed and cells resuspended in 100 μl of each mAb dilution and incubated at 4° C. for 45 min. Cells were washed twice by centrifugation with 150 μl FACS buffer, resuspended in 100 μl containing goat anti-human IgG (γ-chain specific) F(ab′)2 fragment-R-Phycoerythrin antibody (Sigma, P8047) diluted 1:1000 in FACS buffer and incubated at 4° C. for 45 min. The cells were washed once with 150 μl FACS buffer and then with 150 μl DPBS, resuspended in 150 μl DPBS containing DAPI (Biotium, 40043) at 1:10.000 and read on the BDCantoll or iQue (Intellicyt). Data was analysed using FlowJo v10 to determine the signal geometric mean for PE for live cells in each well.
(§2) Cell binding assays using OVCAR-3 cells were performed similarly to the assays described in section 2.4. The effect of the presence of soluble MSLN was tested by pre-incubating the antibodies in the presence or absence of soluble MSLN before mixing with cells and determining if the pre-incubation affected binding to MSLN on the cell surface. […] 60 μl from each well was then added to either FACS buffer alone or to FACS buffer containing 60 μl of 40 nM recombinant hMSLN (R&D systems, 3265-MS-050) (to give a final concentration of 20 nM hMSLN) and pre-incubated at room temperature for 1 hour before 100 μl was added to the cells. Bound antibody was detected using goat anti-human anti-Fcγ Alexa-Fluor 488 (Jackson Immunoresearch, 109-546-098).
(§3) The method used was exactly as described in section 3.1.4.

human MSLN-His-Avi [3] = molecular target: T3, human MSLN-His-Avi (human, UniProt Q13421 296-598, single biotin (BirA) in the biotinylated form); test: ratio of the two SPR KD
T3 construct: Monomeric, made in HEK293-6E; Used both immobilised and in solution; also called hMSLN-His-Avi; biotinylated hMSLN-His-Avi
Summary of the method: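 mAb² clones were tested on two SPR set-ups. In the first, human MSLN-His-Avi was amine-coupled to CM5 (~200 RU) and ~50 nM antibody was injected. In the second, clones were captured on Protein G (~100 RU) and human or cyno MSLN (1000-0.051 nM, 3-fold) was flowed in HBS-EP with 900 mM […] for 5 min association/5 min dissociation. The value is the ratio of the two KD.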

cynomolgus MSLN-His-Avi [4] = molecular target: T1, cynomolgus MSLN-His-Avi; test: SPR (see Table 4)
human MSLN-His-Avi [5] = molecular target: T3, human MSLN-His-Avi; test: SPR (Biacore), MSLN immobilised, mAb^2 injected
Summary of the method: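 Human MSLN-His-Avi amine-coupled to CM5 chip at about 200 RU, blank reference cell subtracted. Anti-MSLN mAb² (supernatant or purified) at about 50 nM in HBS-EP+ injected 2.5 min at 30 μl/min, 2.5 min dissociation; 10 mM glycine pH 1.5 regeneration.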

[6] = molecular target: T2, cell surface human mesothelin (MSLN); test: flow cytometry, NCI-H226 cells + 20 nM soluble MSLN
Description: as §1, §2, §3

human MSLN-His-Avi [7] = molecular target: T3, human MSLN-His-Avi; test: SPR (Biacore), mAb^2 captured on Protein G, MSLN in solution injected
cynomolgus MSLN-His-Avi [8] = molecular target: T1, cynomolgus MSLN-His-Avi; test: as above

T3 sequence (Q13421 other isoform, or with tags, fused parts or gaps): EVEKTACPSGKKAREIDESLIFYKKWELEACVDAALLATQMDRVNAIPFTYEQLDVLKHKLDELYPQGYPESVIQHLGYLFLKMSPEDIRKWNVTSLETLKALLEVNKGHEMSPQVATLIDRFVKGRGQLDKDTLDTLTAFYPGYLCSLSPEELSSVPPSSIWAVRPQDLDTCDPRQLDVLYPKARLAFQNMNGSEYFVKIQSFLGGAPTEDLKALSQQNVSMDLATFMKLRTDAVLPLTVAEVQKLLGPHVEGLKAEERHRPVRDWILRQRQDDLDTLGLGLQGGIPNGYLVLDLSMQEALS
T2 sequence (Q13421 other isoform, or with tags, fused parts or gaps limits assumed): as the sequence (Q13421 other isoform, or with tags, fused parts or gaps) above

Row | fold difference of binding to cyno MSLN against human MSLN (cynomolgus MSLN-His-Avi [1]) | EC50 [2] | Emax (MFI) [2] | Ratio of KD in solution/immobilised for human MSLN-His-Avi (human MSLN-His-Avi [3]) | fold lower affinity for cyno MSLN than for human MSLN (cynomolgus MSLN-His-Avi [4]) | Kd (human MSLN-His-Avi [5]) | EC50 [6] | Emax (MFI) [6] | Kd (human MSLN-His-Avi [7]) | Kd (cynomolgus MSLN-His-Avi [8]) | Binder
1 | ≤ 3 fold | – | – | – | – | – | – | – | – | – | FS22-172-003-AA/FS28-256-271 mAb^2 (bispecific antibody, human IgG1, kappa, L234A L235A) heavy: EVQLLESGGGLVQPGGSLRLSCAASGFTFTHTYMSWVRQAPGKGLEWVSAISPTYSTTNYADSVKGRFTISRDNNKNTLYLQMNSLRAEDTAVYYCARYNAYHAALDYWGQGTLVTVSSASTKGPSVFPLAPSSKSTSGGTAALGCLVKDYFPEPVTVSWNSGALTSGVHTFPAVLQSSGLYSLSSVVTVPSSSLGTQTYICNVNHKPSNTKVDKKVEPKSCDKTHTCPPCPAPEAAGGPSVFLFPPKPKDTLMISRTPEVTCVVVDVSHEDPEVKFNWYVDGVEVHNAKTKPREEQYNSTYRVVSVLTVLHQDWLNGKEYKCKVSNKALPAPIEKTISKAKGQPREPQVYTLPPSRDELPYIIPPYNQVSLTCLVKGFYPSDIAVEWESNGQPENNYKTTPPVLDSDGSFFLYSKLTVGADRWLEGNVFSCSVMHEALHNHYTQKSLSLSPG light: EIVLTQSPGTLSLSPGERATLSCRASQSVSSSYLAWYQQKPGQAPRLLIYGASSRATGIPDRFSGSGSGTDFTLTISRLEPEDFAVYYCQQTVPYPYTFGQGTKVEIKRTVAAPSVFIFPPSDEQLKSGTASVVCLLNNFYPREAKVQWKVDNALQSGNSQESVTEQDSKDSTYSLSSTLTLSKADYEKHKVYACEVTHQGLSSPVTKSFNRGEC
2 | – | 1.47 nM | 981000 MFI | 119 | ~5 fold | 0.39 nM | 5.04 nM | 1.02e+06 MFI | 46.5 nM | 240 nM | FS22-053-008-AA/FS28-024 mAb^2 (bispecific antibody, human IgG1, kappa, L234A L235A, V domains shown, also called FS28-024 (in FS22-053-008-AA mAb^2 format); FS28-024 (in CD137 mAb2 format)) VH: EVQLLESGGGLVQPGGSLRLSCAASGFTLSYSSMSWVRQAPGKGLEWVSFITPSTGYTHYADSVKGRFTISRDNSKNTLYLQMNSLRAEDTAVYYCARRALTFDYWGQGTLVTVSS VL: EIVLTQSPGTLSLSPGERATLSCRASQSVSSSYLAWYQQKPGQAPRLLIYGASSRATGIPDRFSGSGSGTDFTLTISRLEPEDFAVYYCQQASSYPLTFGQGTKVEIKR
